In patent US20100028924A1 (RAPPAPORT FAMILY INSTITUTE RESEARCH IN THE MEDICAL SCIENCES, published 2010):

Biological target: rHDL-apoA-I (reconstituted discoidal HDL particles carrying apolipoprotein A-I)
Assay: cell-based or functional assay

| increase of cholesterol efflux from macrophages relative to rHDL-apoA-I alone [%] | Binder |
| --- | --- |
| 93 | wt rePON1-192K (enzyme) MAKLTALTLLGLGLALFDGQKSSFQTRFNVHREVTPVELPNCNLVKGVDNGSEDLEILPNGLAFISSGLKYPGIMSFDPDKSGKILLMDLNEEDPVVLELGITGNTLDISSFNPHGISTFTDEDNTVYLLVVNHPDSSSTVEVFKFQEEEKSLLHLKTIRHKLLPSVNDIVAVGPEHFYATNDHYFADPYLKSWEMHLGLAWSFVTYYSPNDVRVVAEGFDFANGINISPDGKYVYIAELLAHKIHVYEKHANWTLTPLKSLDFDTLVDNISVDPVTGDLWVGCHPNGMRIFYYDPKNPPGSEVLRIQDILSEEPKVTVVYAENGTVLQGSTVAAVYKGKLLIGTVFHKALYCEL |
| 30 | rePON1-192Q (enzyme) MAKLTALTLLGLGLALFDGQKSSFQTRFNVHREVTPVELPNCNLVKGVDNGSEDLEILPNGLAFISSGLKYPGIMSFDPDKSGKILLMDLNEEDPVVLELGITGNTLDISSFNPHGISTFTDEDNTVYLLVVNHPDSSSTVEVFKFQEEEKSLLHLKTIRHKLLPSVNDIVAVGPEHFYATNDHYFADPYLQSWEMHLGLAWSFVTYYSPNDVRVVAEGFDFANGINISPDGKYVYIAELLAHKIHVYEKHANWTLTPLKSLDFDTLVDNISVDPVTGDLWVGCHPNGMRIFYYDPKNPPGSEVLRIQDILSEEPKVTVVYAENGTVLQGSTVAAVYKGKLLIGTVFHKALYCEL |
| 67 | rePON1-192R (enzyme) MAKLTALTLLGLGLALFDGQKSSFQTRFNVHREVTPVELPNCNLVKGVDNGSEDLEILPNGLAFISSGLKYPGIMSFDPDKSGKILLMDLNEEDPVVLELGITGNTLDISSFNPHGISTFTDEDNTVYLLVVNHPDSSSTVEVFKFQEEEKSLLHLKTIRHKLLPSVNDIVAVGPEHFYATNDHYFADPYLRSWEMHLGLAWSFVTYYSPNDVRVVAEGFDFANGINISPDGKYVYIAELLAHKIHVYEKHANWTLTPLKSLDFDTLVDNISVDPVTGDLWVGCHPNGMRIFYYDPKNPPGSEVLRIQDILSEEPKVTVVYAENGTVLQGSTVAAVYKGKLLIGTVFHKALYCEL |
